In one series the target is troponin complex (UniProt P19429+P63316+P45379). The following applies: 3'-(CH2)6-SH thiol; SERS sandwich: 300 mM NaCl, 20 mM Tris-HCl, 0.5 mM beta-mercaptoethanol, 20% (w/v) glycerol, 0.05% Tween 20, pH 8.0 (or with 20% human serum), 35 °C, 6 h, then …; cited from earlier work.
Series [1] has as its target cardiac troponin I (cTnI) (UniProt P19429 2-210). In words: SERS sandwich on Au nanoplate; AFM; sandwich with reporter N2; detected from 100 aM in buffer, 100 fM in 20% human serum; AFM capture at 10 pM; SERS sandwich: 300 mM NaCl, 20 mM Tris-HCl, 0.5 mM beta-mercaptoethanol, 20% (w/v) glycerol, 0.05% Tween 20, pH 8.0 (or with 20% human serum), 35 °C, 6 h, then.

What is called Kd is the equilibrium constant for the complex coming apart. In the case of “CGCATGCCAAACGTTGCCTCATAGTTCCCTCCCCGTGTCC [Probe aptamer]”, the Kd in the series with troponin complex was 3.37 nM.

With “CGTGCAGTACGCCAACCTTTCTCATGCGCTGCCCCTCTTA [Reporter aptamer]”, the dissociation constant (Kd) with troponin complex was 3.1 nM.

Take CGCATGCCAAACGTTGCCTCATAGTTCCCTCCCCGTGTCC (ssDNA, 3'-(CH2)6-SH thiol) [Probe aptamer]: in series [1], the binding result is on record as “binds”.

Source of the values: publication PMC7407982, “Troponin Aptamer on an Atomically Flat Au Nanoplate Platform for Detection of Cardiac Troponin I”.
